Test results: PMC7018707, “FUS Recognizes G Quadruplex Structures Within Neuronal mRNAs”

Molecular target: full-length FUS wild type (UniProt P35637 1-526)
Assay: steady-state fluorescence (2-AP); 150 mM KCl, 5-fold excess BSA; Fluorescence: 10 mM cacodylic acid pH 6.5, 150 mM KCl, 23 C, 150 or 200 nM RNA, 5-fold excess BSA or HCV peptide; pull-down: 5 uM probe annealed in the same buffer, room temperature, RIPA lysate and washes; native PAGE 20%, RNA:peptide 1:1 to 1:3
Details: protein: recombinant, G quadruplex

Chain of full-length FUS wild type (P35637 whole entry): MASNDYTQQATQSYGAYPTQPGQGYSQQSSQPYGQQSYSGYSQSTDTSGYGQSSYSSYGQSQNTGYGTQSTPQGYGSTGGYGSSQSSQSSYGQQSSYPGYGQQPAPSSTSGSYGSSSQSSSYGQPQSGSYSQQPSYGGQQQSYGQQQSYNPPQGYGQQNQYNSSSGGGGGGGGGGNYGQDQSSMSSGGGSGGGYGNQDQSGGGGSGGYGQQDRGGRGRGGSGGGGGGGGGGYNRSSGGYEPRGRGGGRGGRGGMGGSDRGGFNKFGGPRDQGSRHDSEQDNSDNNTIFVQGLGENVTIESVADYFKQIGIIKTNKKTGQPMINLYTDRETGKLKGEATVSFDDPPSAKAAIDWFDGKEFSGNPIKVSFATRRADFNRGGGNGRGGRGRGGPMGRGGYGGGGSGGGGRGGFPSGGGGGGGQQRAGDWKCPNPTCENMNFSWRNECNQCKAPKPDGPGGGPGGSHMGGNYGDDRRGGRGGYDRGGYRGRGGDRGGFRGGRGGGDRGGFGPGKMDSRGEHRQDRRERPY

Binder: GGGGUUGGGGAGGGUGUAGGGGGUGGGG (structured_RNA, A18 replaced by 2-aminopurine) [Shank1a GQ 2-AP]
- Kd (label: 2-AP at position 18): 88 ± 27 nM

Binder: GGGAGGGAGGGUGGG (structured_RNA, A4 replaced by 2-aminopurine) [PSD-95 GQ2 2-AP]
- Kd (label: 2-AP at position 4): 28 ± 10 nM
